Assay [1] has as its target T1, human FcγRIIIB (NA2 allotype) (human, UniProt O75015 17-200, limits assumed).
T1 construct: bought; NA2 allotype
As to the kind of experiment: SPR, receptor captured on anti-His chip.

Another assay has as its target T2, human FcγRIIA (R131) (human, UniProt P12318 34-218, limits assumed).
T2 construct: bought; R131 allele
T2 sequence (looked up): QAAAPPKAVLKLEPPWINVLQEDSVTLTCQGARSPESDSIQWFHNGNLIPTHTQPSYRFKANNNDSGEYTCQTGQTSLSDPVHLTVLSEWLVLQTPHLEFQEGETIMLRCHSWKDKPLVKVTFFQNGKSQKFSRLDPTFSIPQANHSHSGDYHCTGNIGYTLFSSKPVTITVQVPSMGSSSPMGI
As to the kind of experiment: SPR, receptor captured on anti-His chip. For orientation: In SPR one partner is held on a chip, and binding of the other changes the refractive index at the surface.

For another assay, the target named is T3, human FcγRIIIA (F158) (human, UniProt P08637 17-208).
T3 construct: bought; F158 allele
T3 sequence (P08637 17-208 limits assumed): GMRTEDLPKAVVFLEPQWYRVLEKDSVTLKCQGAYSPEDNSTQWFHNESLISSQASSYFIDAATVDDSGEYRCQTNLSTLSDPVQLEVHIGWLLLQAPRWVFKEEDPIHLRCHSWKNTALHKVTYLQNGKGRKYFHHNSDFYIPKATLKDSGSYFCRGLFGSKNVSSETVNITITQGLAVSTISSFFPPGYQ
As to the kind of experiment: SPR, FcγRIIIA captured. Note: test concentration or dose not given here.

The target in the next assay is T4, cynomolgus monkey FcRn (cynomolgus monkey, UniProt Q8SPV9 24-297; Q8SPW0 21-119).
T4 construct: bought; also called cynomolgus FcRn
As to the kind of experiment: SPR pH 6.0, FcRn captured.

The target of the next assay is T5, rat FcγRI (rat, UniProt A0A0B4J2J0 16-285).
T5 construct: bought; captured on anti-histidine chip
T5 sequence: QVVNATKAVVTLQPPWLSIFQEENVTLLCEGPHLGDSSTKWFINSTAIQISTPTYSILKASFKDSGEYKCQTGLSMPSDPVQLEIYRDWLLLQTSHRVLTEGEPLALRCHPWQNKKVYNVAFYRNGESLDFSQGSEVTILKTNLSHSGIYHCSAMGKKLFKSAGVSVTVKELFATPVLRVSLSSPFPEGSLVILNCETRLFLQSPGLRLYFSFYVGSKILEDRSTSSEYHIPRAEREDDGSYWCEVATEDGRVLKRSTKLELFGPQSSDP
As to the kind of experiment: SPR, receptor captured on anti-His chip.

In a further assay the target is T6, rabbit FcγRI (rabbit).
T6 construct: bought; captured on anti-histidine chip
As to the kind of experiment: SPR, receptor captured on anti-His chip.

A further assay deals with T7, mouse FcγRI (mouse, UniProt P26151 25-297).
T7 construct: bought; captured on anti-histidine chip
T7 sequence (looked up): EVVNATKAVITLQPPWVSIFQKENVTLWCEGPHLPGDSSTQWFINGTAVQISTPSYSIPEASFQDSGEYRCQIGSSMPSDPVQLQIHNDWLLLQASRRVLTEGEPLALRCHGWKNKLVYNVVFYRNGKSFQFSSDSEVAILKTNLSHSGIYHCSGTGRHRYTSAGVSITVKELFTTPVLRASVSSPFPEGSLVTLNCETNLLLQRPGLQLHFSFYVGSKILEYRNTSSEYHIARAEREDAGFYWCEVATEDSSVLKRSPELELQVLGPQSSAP
As to the kind of experiment: SPR, receptor captured on anti-His chip.

The target of assay [2] is T8, Histidine-tagged recombinant human FcγRI (CD64) (human, UniProt P12314 16-288, limits assumed).
T8 construct: bought
As to the kind of experiment: SPR, His-FcγRI captured; Expt 2.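 Note: biacore T200 SPR at 25 °C, Fc-variant antibodies at 100 µg/mL flowed 1 min over anti-His-captured receptor, signal read near injection end minus third buffer blank; antibody analyte injected at 100 µg/mL for 1 min.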

The target in assay [3] is T8, Histidine-tagged recombinant human …. As to the kind of experiment: SPR, His-FcγRI captured; Expt 1.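 Note: SPR at 25 °C on anti-His antibody chip capturing FcγRI, Fc-variant antibodies injected at 100 µg/mL for 1 min, signal near end of injection minus buffer blank.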
Protocol: (§1) Binding analysis was carried out by surface plasmon resonance at 25° C. using a Biacore® T200 instrument with Biacore® T200 control software. The sample compartment was held at 5° C. The running buffer (HBS-EP+) consisted of 0.01 M HEPES pH 7.4, containing 0.15 M NaCl, 3 mM EDTA, and 0.05% v/v Surfactant P20. Methods were run using the manufacturer's standard method wizards as described in the Biacore® T200 Instrument Handbook.
(§2) The cell was activated by treatment with EDC/NHS for 7 min. The antibody was diluted to 10 μg/mL in 10 mM sodium acetate pH 5.0 and injected for 7 min at 5 μL/min. The flow cell was deactivated by injection of 1M ethanolamine for 7 min. This process was repeated in the absence of anti-his antibody on a separate flow cell to generate a reference surface. […] Samples of purified antibodies comprising variant Fc regions (1 mg/mL in PBS) were diluted with running buffer to 100 μg/mL and were injected for 1 min at 30 μL/min and allowed to disassociate for 2 min. Between each cycle, the chip was regenerated by injection of 10 mM glycine pH 3.0 for 0.5 min at a flow rate of 30 μL/min and recharged with a fresh injection of FcγRI. At the beginning of each experiment, three blank cycles were run, with buffer alone being injected instead of test sample. The average SPR signal (relative to the reference cell) was measured in a window approximately 8 to 13 seconds before the injection of test sample (baseline) and approximately 3 to 8 seconds before the end of injection (response). The response of the third of the blank (buffer) samples was subtracted from the response of each test sample in order to allow for any dissociation of the bound FcγRI giving a corrected response for each test sample. The whole experiment was repeated three times with the test samples being analysed in different orders each time.
Assay [4] concerns the target T9, human FcRn (human, UniProt P55899 24-297; P61769 21-119).
T9 construct: bought
As to the kind of experiment: SPR pH 6.0, FcRn captured; Expt 2.

Assay [5] has as its target T9, human FcRn. As to the kind of experiment: SPR pH 6.0, FcRn captured; Expt 1.
For assay [6], the target named is T8, Histidine-tagged recombinant human …. As to the kind of experiment: SPR, His-FcγRI captured; Expt 3.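 Note: biacore T200 SPR at 25 °C, Fc-variant antibodies at 100 µg/mL flowed 1 min over anti-His-captured FcγRI, signal taken just before injection end minus a buffer blank cycle; antibody analyte injected at 100 µg/mL for 1 min.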
Protocol: as §1, §2

T9 sequence (P55899 24-297 limits assumed, chain 1 of 2): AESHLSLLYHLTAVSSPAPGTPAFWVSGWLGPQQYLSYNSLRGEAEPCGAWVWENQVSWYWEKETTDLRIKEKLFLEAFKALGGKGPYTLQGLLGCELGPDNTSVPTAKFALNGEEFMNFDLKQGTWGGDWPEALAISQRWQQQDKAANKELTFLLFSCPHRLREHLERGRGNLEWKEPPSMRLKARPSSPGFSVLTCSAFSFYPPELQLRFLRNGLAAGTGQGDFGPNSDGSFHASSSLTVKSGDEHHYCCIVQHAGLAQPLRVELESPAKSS
T9 sequence (P61769 21-119 limits assumed, chain 2 of 2): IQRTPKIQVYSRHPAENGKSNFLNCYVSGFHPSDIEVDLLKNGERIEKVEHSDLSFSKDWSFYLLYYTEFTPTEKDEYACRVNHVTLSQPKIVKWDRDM
Protocol for cynomolgus monkey FcRn: Samples of purified antibodies comprising variant Fc regions (1 mg/mL in PBS) were diluted with running buffer to 100 μg/mL and were injected for 1 min at 30 μL/min and allowed to disassociate for 2 min. Between each cycle, the chip was regenerated by injection of 10 mM glycine pH 3.0 for 0.5 min at a flow rate of 30 μL/min and recharged with a fresh injection of FcγRI. At the beginning of each experiment, three blank cycles were run, with buffer alone being injected instead of test sample. The average SPR signal (relative to the reference cell) was measured in a window approximately 8 to 13 seconds before the injection of test sample (baseline) and approximately 3 to 8 seconds before the end of injection (response). The response of the third of the blank (buffer) samples was subtracted from the response of each test sample in order to allow for any dissociation of the bound FcγRI giving a corrected response for each test sample. The whole experiment was repeated three times with the test samples being analysed in different orders each time. […] This lot was run at the beginning and end of each experiment as a consistency check.
As before the binding responses were corrected by subtraction of the response given by a blank sample consisting of running buffer alone.

B1: anti-CD20 human IgG1 L234Q/L235S/G236R (antibody)
heavy: QVQLQQPGAELVKPGASVKMSCKASGYTFTSYNMHWVKQTPGRGLEWIGAIYPGNGDTSYNQKFKGKATLTADKSSSTAYMQLSSLTSEDSAVYYCARSTYYGGDWYFNVWGAGTTVTVSSASTKGPSVFPLAPSSKSTSGGTAALGCLVKDYFPEPVTVSWNSGALTSGVHTFPAVLQSSGLYSLSSVVTVPSSSLGTQTYICNVNHKPSNTKVDKKVEPKSCDKTHTCPPCPAPEQSRGPSVFLFPPKPKDTLMISRTPEVTCVVVDVSHEDPEVKFNWYVDGVEVHNAKTKPREEQYNSTYRVVSVLTVLHQDWLNGKEYKCKVSNKALPAPIEKTISKAKGQPREPQVYTLPPSRDELTKNQVSLTCLVKGFYPSDIAVEWESNGQPENNYKTTPPVLDSDGSFFLYSKLTVDKSRWQQGNVFSCSVMHEALHNHYTQKSLSLSPGK
light: QIVLSQSPAILSASPGEKVTMTCRASSSVSYIHWFQQKPGSSPKPWIYATSNLASGVPVRFSGSGSGTSYSLTISRVEAEDAATYYCQQWTSNPPTFGGGTKLEIKRTVAAPSVFIFPPSDEQLKSGTASVVCLLNNFYPREAKVQWKVDNALQSGNSQESVTEQDSKDSTYSLSSTLTLSKADYEKHKVYACEVTHQGLSSPVTKSFNRGEC
notes: also called 2-33; 10.77
In the case of B1, the “Corrected response (RU)” value in assay [1] amounted to 2.3 RU; with human FcγRIIA (R131) it was 1.8 RU; with human FcγRIIIA (F158), 2.7 RU; with cynomolgus monkey FcRn, 1170 RU; with rat FcγRI, 0.6 RU; with rabbit FcγRI, 0.9 RU. Besides, the “Corrected response (RU)” value in the assay with mouse FcγRI is 0.5 RU; in [2], 1.6 RU; in assay [3], -1.8 RU; in the assay with human FcRn [4] it was 496 RU; with human FcRn [5] it was 488 RU; in [6] it was 3.8 RU.

The values are drawn from patent US20230235013A1 (MABSOLVE, published 2023).
